Assay results from paper PMC10752894, “Structural basis for DNA proofreading” (Nature Communications, 2023).

Target: ΔG-loop Polγ holoenzyme (Homo sapiens, UniProt P54098;Q9UHN1 26-760+770-1239;26-485, internal_change)
Experiment: EMSA; 10 mM Mg2+; affinity not affected by deletion; EMSA: 40 mM Tris-HCl pH 7.9, 60 mM NaCl, 10 mM MgCl2, 5% glycerol, 20 mM 2-mercaptoethanol, 0.1 mg/ml BSA, 150 nM Cy3 scaffold, 10 min room temperature; 0.5% agarose, 0.5X TBE, 4 °C
Conditions: protein: recombinant; tags: N-terminal His (both subunits); copies: 1;2; label: 5'-Cy3 on DNA24; primer-template, 24 nt 5' template overhang

ΔG-loop Polγ holoenzyme, sequence (P54098 other isoform, or with tags, fused parts or gaps | mutant, chain 1 of 2): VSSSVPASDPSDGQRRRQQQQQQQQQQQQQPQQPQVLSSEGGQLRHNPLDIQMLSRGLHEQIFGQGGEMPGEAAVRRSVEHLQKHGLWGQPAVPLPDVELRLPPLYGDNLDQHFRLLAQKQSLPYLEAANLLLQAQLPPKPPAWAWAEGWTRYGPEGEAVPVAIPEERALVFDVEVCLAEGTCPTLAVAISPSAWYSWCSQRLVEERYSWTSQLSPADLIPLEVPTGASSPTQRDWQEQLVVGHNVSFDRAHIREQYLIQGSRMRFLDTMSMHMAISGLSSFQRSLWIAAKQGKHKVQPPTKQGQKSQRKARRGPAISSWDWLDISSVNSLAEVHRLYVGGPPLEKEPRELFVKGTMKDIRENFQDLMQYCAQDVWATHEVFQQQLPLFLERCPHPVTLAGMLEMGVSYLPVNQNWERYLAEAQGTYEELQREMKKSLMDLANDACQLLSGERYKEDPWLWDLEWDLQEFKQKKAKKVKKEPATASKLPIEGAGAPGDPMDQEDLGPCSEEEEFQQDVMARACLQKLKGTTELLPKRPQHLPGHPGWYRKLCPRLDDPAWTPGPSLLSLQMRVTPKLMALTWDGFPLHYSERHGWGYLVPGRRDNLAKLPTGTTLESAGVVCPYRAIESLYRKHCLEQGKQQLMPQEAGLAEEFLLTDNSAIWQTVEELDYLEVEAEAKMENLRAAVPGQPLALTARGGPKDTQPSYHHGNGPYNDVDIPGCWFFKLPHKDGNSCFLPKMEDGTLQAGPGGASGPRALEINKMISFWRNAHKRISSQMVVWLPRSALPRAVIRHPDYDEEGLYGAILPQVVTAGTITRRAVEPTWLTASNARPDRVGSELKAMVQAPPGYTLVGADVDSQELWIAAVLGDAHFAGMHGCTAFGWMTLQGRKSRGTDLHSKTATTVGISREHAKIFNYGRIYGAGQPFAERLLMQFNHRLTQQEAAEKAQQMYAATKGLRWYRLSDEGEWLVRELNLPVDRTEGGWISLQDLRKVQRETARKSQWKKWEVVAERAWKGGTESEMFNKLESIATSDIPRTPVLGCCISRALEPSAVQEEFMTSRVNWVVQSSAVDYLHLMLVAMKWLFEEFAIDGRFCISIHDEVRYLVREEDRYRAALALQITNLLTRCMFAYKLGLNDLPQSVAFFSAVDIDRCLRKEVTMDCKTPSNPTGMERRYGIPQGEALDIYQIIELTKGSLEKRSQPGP
ΔG-loop Polγ holoenzyme, sequence (Q9UHN1 26-485, stated change not applied, chain 2 of 2): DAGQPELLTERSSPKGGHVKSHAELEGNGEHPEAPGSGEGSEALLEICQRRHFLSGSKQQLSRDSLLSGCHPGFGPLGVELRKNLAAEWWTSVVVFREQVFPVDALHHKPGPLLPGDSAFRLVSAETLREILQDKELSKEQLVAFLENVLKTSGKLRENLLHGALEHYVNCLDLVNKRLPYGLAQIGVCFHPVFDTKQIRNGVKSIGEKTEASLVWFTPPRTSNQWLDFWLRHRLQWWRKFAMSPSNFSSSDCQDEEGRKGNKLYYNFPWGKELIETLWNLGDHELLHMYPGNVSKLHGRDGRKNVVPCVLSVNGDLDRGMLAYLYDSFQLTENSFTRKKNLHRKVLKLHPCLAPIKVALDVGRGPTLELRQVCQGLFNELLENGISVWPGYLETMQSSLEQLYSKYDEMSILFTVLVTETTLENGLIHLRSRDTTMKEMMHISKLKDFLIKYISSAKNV

B1: DNA24/DNA24TS (dsDNA)
DNA 1: GGTACAACTTGACGACATAGCGTG
DNA 2: CGGTCGAGTCACGACTCCGATTATCACGCTATGTCGTCAAGTTGTACC
binding result: binds
